Assay results published in US20140303084A1 (Biogen, published 2014).
Square brackets hold non-standard residues; d marks the D form. Ends that are not written are not given here. NMeL = CN[C@@H](CC(C)C)C(=O)O

B1: k-MeLeu-TCLASYCWLA (peptide)
peptide: [dK][NMeL]TCLASYCWLA
modifications: not fully specified (C-terminus); printed as k-MeLeu-TCLASYCWLA; cysteine pairing not given here
B2: k-MeLeu-TCLASYCQLF (peptide)
peptide: [dK][NMeL]TCLASYCQLF
modifications: not fully specified (C-terminus); printed as k-MeLeu-TCLASYCQLF; cysteine pairing not given here
B3: HDSLDQLTCLASVCQLASMGAR (peptide)
peptide: HDSLDQLTCLASVCQLASMGAR
B4: GASGRRRTCVASYCLLFQSGLP (peptide)
peptide: GASGRRRTCVASYCLLFQSGLP
B5: k-MeLeu-TCLAS-(Y-OMe)-CWLF (peptide)
peptide: [dK][NMeL]TCLASYCWLF
modifications: not fully specified (residue 8); cysteine pairing not given here
B6: KK-k-MeLeu-TCLASYCWLF (peptide)
peptide: KK[dK][NMeL]TCLASYCWLF
modifications: not fully specified; printed as KK-k-MeLeu-TCLASYCWLF; cysteine pairing not given here
B7: RGRSAKLRCLASYCWLFFGVIL (peptide)
peptide: RGRSAKLRCLASYCWLFFGVIL
B8: SKWEHQRGCLANNCWLFTLAPG (peptide)
peptide: SKWEHQRGCLANNCWLFTLAPG
B9: RRAAGKLQCLASYCWLFWTGIA (peptide)
peptide: RRAAGKLQCLASYCWLFWTGIA
B10: HLGSPKLTCGASQCWLLNHEVS (peptide)
peptide: HLGSPKLTCGASQCWLLNHEVS
B11: VSGTGRLTCVASYCWMFQLGIF (peptide)
peptide: VSGTGRLTCVASYCWMFQLGIF
B12: VARASKVECLASYCQLFVGGEV (peptide)
peptide: VARASKVECLASYCQLFVGGEV
B13: SRQSDKPTCLAISCSLLTSNVR (peptide)
peptide: SRQSDKPTCLAISCSLLTSNVR
B14: FPIQHKLTCLSSDCWLFPSHSY (peptide)
peptide: FPIQHKLTCLSSDCWLFPSHSY
B15: Ac-K-k-MeLeu-TCLASYCWLF (peptide)
peptide: Ac-K[dK][NMeL]TCLASYCWLF
modifications: cysteine pairing not given here
B16: K-k-MeLeu-TCLASYCWLF (peptide)
peptide: K[dK][NMeL]TCLASYCWLF
modifications: not fully specified; printed as K-k-MeLeu-TCLASYCWLF; cysteine pairing not given here
B17: RQLWNKLTCLASYCALIGLSGT (peptide)
peptide: RQLWNKLTCLASYCALIGLSGT
B18: RRAPGKLQCLASYCWLFATAIA (peptide)
peptide: RRAPGKLQCLASYCWLFATAIA
B19: QAKMLKLTCLASYCWLFWVTRS (peptide)
peptide: QAKMLKLTCLASYCWLFWVTRS
B20: (KLTCLASYCWLFG)2═N-O-(CH2)3-O-N═ (peptide)
peptide: KLTCLASYCWLFG
modifications: cysteine pairing not given here; also: dimer: two copies joined by ═N-O-(CH2)3-O-N═ (linker 1) at residue 13
B21: R-k-MeLeu-TCLASYCWLF (peptide)
peptide: R[dK][NMeL]TCLASYCWLF
modifications: cysteine pairing not given here
B22: GDSGRKLSCLGSYCWLSVQFMA (peptide)
peptide: GDSGRKLSCLGSYCWLSVQFMA
B23: KKK-k-MeLeu-TCLASYCWLF (peptide)
peptide: KKK[dK][NMeL]TCLASYCWLF
modifications: not fully specified; printed as KKK-k-MeLeu-TCLASYCWLF; cysteine pairing not given here
B24: VSGTGKLTCLASYCWLFQLGSF (peptide)
peptide: VSGTGKLTCLASYCWLFQLGSF
B25: HGLADRLTCLSSDCWLQPFGTS (peptide)
peptide: HGLADRLTCLSSDCWLQPFGTS
B26: RGSVHQPTCLGGYCGRLHSSWV (peptide)
peptide: RGSVHQPTCLGGYCGRLHSSWV
B27: HQQRRKLTCLAGYCWLFVLGPS (peptide)
peptide: HQQRRKLTCLAGYCWLFVLGPS
modifications: not fully specified; cysteine pairing not given here
B28: RGRSAKLTCLASYCWLFFGVIL (peptide)
peptide: RGRSAKLTCLASYCWLFFGVIL
B29: QEQPAKLTCRGSYCWLFKRGDQ (peptide)
peptide: QEQPAKLTCRGSYCWLFKRGDQ
B30: RGRSAKLRCLASYCWLFFTVIL (peptide)
peptide: RGRSAKLRCLASYCWLFFTVIL
B31: RRAPAKLQCLASYCWLFWTGIA (peptide)
peptide: RRAPAKLQCLASYCWLFWTGIA
B32: KRYVYRQMCLVSACWLLQLGYA (peptide)
peptide: KRYVYRQMCLVSACWLLQLGYA
B33: NGGMQKPACLASQCWLFANPLP (peptide)
peptide: NGGMQKPACLASQCWLFANPLP
B34: DAKVAKLRCLGSQCWLLQYAPG (peptide)
peptide: DAKVAKLRCLGSQCWLLQYAPG
B35: k-k-MeLeu-TCLASYCWLF (peptide)
peptide: KKLTCLASYCWLF
modifications: not fully specified; D-Lys 1, D-Lys 2, MeLeu 3
B36: VSGTGRLTCVASYCWMFQLGSF (peptide)
peptide: VSGTGRLTCVASYCWMFQLGSF
B37: RSTVSQMRCLASYCWLFPALVS (peptide)
peptide: RSTVSQMRCLASYCWLFPALVS
B38: RHSNHNLTCQASYCWLLPAGLQ (peptide)
peptide: RHSNHNLTCQASYCWLLPAGLQ
B39: KGAYQKLTCLASYCLLFLLTAQ (peptide)
peptide: KGAYQKLTCLASYCLLFLLTAQ

biological target: human Factor IXa (human, UniProt P00740 47-191; P00740 227-461); experiment: cell-based or functional assay

Binder	EC50 [µM], FXa generation assay [µM]
B1	> 1
B2	> 1
B3	> 1
B4	> 25
B5	< 0.5
B6	> 10
B7	< 0.5
B8	> 50
B9	< 0.5
B10	> 50
B11	< 0.5
B12	> 1
B13	> 50
B14	> 50
B15	< 0.5
B16	> 1
B17	> 1
B18	< 0.5
B19	< 0.5
B20	< 0.5

Binder	EC50 [µM], FXa generation assay [µM]
B21	> 1
B22	< 0.5
B23	> 20
B24	< 0.5
B25	> 50
B26	> 50
B27	> 1
B28	< 0.5
B29	> 50
B30	< 0.5
B31	< 0.5
B32	< 0.5
B33	> 1
B34	< 0.5
B35	> 2.5
B36	< 0.5
B37	< 0.5
B38	> 1
B39	< 0.5
